For test [1], the target named is HEL-Dylight633 conjugate (hen egg lysozyme labeled with Dylight633) (chicken) (UniProt P00698). Put plainly: microfluidic fluorescence bead assay; mAb captured on rabbit anti-mouse pAb Protein A beads, labeled antigen in flow.
For test [2] the target is unchanged. In words: microfluidic fluorescence bead assay; compared with D1.3 mAb on HEL.
Test [3] concerns the target HEL-Dylight488 conjugate (hen egg lysozyme labeled with Dylight488) (chicken) (UniProt P00698). Put plainly: microfluidic fluorescence bead assay; mAb captured on rabbit anti-mouse pAb Protein A beads, labeled antigen in flow.

Regarding “HyHEL-5 mouse monoclonal antibody to lysozyme”, in test [1], the Kd worked out at 0.03 nM, the koff was determined as 0.000169 s⁻¹ and the on-rate constant (kon) came to 5.75e+06 M⁻¹ s⁻¹. Also, in test [2], the fold larger association rate constant than D1.3 mAb amounted to 4 fold, the fold smaller dissociation rate constant than D1.3 mAb amounted to 10 fold and the fold smaller equilibrium dissociation constant than D1.3 came to 40 fold.

For the substance “D1.3 mouse monoclonal antibody (mAb) to lysozyme”, the Kd in test [3] worked out at 1.2 nM.

These data come from US20120015347A1.
